Results: patent publication US20140274782A1, “AFFINITY REAGENTS AND METHODS FOR DETECTION, PURIFICATION, AND PROTEOMIC ANALYSIS OF METHYLATED PROTEINS” (The Board of Trustees of the Leland Stanford Junior …, priority 2013, published 2014)

T1: G9a and GLP (Homo sapiens, UniProt Q96KQ7+Q9H9B1)
T1 sequence (Q96KQ7 2-1210 limits assumed): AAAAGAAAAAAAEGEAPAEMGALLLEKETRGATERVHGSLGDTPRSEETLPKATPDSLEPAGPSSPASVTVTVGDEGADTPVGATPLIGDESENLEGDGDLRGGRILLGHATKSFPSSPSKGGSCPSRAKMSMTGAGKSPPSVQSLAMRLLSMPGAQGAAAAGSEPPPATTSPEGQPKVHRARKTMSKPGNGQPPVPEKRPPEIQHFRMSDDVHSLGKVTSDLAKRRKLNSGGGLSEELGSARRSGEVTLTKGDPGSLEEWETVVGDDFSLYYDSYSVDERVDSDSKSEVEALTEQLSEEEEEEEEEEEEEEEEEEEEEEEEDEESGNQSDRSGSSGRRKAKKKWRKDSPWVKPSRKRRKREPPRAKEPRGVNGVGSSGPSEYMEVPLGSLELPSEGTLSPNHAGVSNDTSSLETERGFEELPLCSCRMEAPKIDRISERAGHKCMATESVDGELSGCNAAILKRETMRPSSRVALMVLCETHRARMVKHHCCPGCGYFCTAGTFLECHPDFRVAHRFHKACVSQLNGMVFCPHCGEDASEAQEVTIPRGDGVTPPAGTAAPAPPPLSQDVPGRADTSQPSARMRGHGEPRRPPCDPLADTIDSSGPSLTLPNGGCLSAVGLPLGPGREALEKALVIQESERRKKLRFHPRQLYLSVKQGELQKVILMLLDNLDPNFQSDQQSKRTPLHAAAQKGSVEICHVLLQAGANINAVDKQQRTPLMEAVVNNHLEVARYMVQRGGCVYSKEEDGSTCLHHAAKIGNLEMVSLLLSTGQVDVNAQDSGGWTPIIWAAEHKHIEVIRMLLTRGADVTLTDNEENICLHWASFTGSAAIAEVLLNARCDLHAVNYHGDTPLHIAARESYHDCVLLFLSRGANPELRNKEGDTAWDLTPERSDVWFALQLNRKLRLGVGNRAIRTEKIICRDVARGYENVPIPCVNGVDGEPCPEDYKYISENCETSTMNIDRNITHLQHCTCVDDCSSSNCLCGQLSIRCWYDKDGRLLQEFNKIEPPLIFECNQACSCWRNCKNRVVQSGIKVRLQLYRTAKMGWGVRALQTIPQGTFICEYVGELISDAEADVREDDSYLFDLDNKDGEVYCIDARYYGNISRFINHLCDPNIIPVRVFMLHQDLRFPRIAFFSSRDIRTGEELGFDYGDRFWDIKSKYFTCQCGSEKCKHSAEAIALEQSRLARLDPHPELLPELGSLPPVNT
T1 sequence (Q9H9B1 2-1298 limits assumed): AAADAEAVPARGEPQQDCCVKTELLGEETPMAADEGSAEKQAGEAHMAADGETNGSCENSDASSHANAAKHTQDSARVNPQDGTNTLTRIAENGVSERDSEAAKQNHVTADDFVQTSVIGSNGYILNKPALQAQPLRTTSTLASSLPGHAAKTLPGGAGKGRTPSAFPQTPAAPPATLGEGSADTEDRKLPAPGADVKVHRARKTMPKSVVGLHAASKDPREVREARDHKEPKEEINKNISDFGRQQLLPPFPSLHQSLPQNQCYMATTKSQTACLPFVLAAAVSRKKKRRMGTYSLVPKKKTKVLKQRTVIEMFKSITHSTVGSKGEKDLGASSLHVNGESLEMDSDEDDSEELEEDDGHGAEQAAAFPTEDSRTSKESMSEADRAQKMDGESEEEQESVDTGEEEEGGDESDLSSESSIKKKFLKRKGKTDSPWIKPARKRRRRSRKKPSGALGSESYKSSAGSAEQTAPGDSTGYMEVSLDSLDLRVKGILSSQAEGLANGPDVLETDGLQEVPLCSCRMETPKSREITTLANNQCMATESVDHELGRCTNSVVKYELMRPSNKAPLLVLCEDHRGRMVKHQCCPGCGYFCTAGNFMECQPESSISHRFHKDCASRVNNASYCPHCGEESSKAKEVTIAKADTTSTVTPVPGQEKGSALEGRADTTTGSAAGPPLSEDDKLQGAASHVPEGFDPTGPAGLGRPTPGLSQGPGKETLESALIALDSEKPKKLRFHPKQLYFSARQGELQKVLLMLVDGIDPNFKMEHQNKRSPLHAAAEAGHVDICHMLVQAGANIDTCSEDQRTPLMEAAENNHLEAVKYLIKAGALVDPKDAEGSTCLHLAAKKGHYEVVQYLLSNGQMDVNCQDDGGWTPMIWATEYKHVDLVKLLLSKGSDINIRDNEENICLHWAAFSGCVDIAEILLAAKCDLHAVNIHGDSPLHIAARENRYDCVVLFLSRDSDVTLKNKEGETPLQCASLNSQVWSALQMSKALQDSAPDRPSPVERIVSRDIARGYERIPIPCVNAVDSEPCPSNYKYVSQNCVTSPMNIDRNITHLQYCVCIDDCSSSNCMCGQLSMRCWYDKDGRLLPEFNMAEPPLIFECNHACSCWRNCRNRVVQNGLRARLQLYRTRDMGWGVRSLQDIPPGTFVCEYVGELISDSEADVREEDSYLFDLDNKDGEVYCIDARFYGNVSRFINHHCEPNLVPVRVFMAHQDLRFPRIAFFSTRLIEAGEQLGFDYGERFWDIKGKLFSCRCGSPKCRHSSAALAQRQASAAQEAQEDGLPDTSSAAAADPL

B1: UBXN1 (protein, UniProt Q04323 2-297, looked up)
UBX domain-containing protein …: AELTALESLIEMGFPRGRAEKALALTGNQGIEAAMDWLMEHEDDPDVDEPLETPLGHILGREPTSSEQGGLEGSGSAAGEGKPALSEEERQEQTKRMLELVAQKQREREEREEREALERERQRRRQGQELSAARQRLQEDEMRRAAEERRREKAEELAARQRVREKIERDKAERAKKYGGSVGSQPPPVAPEPGPVPSSPSQEPPTKREYDQCRIQVRLPDGTSLTQTFRAREQLAAVRLYVELHRGEELGGGQDPVQLLSGFPRRAFSEADMERPLQELGLVPSAVLIVAKKCPS
B2: SNRNP40 (protein, UniProt Q96DI7 1-357, looked up)
U5 small nuclear …: MIEQQKRKGPELPLVPVKRQRHELLLGAGSGPGAGQQQATPGALLQAGPPRCSSLQAPIMLLSGHEGEVYCCKFHPNGSTLASAGFDRLILLWNVYGDCDNYATLKGHSGAVMELHYNTDGSMLFSASTDKTVAVWDSETGERVKRLKGHTSFVNSCYPARRGPQLVCTGSDDGTVKLWDIRKKAAIQTFQNTYQVLAVTFNDTSDQIISGGIDNDIKVWDLRQNKLTYTMRGHADSVTGLSLSSEGSYLLSNAMDNTVRVWDVRPFAPKERCVKIFQGNVHNFEKNLLRCSWSPDGSKIAAGSADRFVYVWDTTSRRILYKLPGHAGSINEVAFHPDEPIIISASSDKRLYMGEIQ
B3: MAP4 (protein, UniProt P27816 2-1152, looked up)
Microtubule-associated …: ADLSLADALTEPSPDIEGEIKRDFIATLEAEAFDDVVGETVGKTDYIPLLDVDEKTGNSESKKKPCSETSQIEDTPSSKPTLLANGGHGVEGSDTTGSPTEFLEEKMAYQEYPNSQNWPEDTNFCFQPEQVVDPIQTDPFKMYHDDDLADLVFPSSATADTSIFAGQNDPLKDSYGMSPCNTAVVPQGWSVEALNSPHSESFVSPEAVAEPPQPTAVPLELAKEIEMASEERPPAQALEIMMGLKTTDMAPSKETEMALAKDMALATKTEVALAKDMESPTKLDVTLAKDMQPSMESDMALVKDMELPTEKEVALVKDVRWPTETDVSSAKNVVLPTETEVAPAKDVTLLKETERASPIKMDLAPSKDMGPPKENKKETERASPIKMDLAPSKDMGPPKENKIVPAKDLVLLSEIEVAQANDIISSTEISSAEKVALSSETEVALARDMTLPPETNVILTKDKALPLEAEVAPVKDMAQLPETEIAPAKDVAPSTVKEVGLLKDMSPLSETEMALGKDVTPPPETEVVLIKNVCLPPEMEVALTEDQVPALKTEAPLAKDGVLTLANNVTPAKDVPPLSETEATPVPIKDMEIAQTQKGISEDSHLESLQDVGQSAAPTFMISPETVTGTGKKCSLPAEEDSVLEKLGERKPCNSQPSELSSETSGIARPEEGRPVVSGTGNDITTPPNKELPPSPEKKTKPLATTQPAKTSTSKAKTQPTSLPKQPAPTTIGGLNKKPMSLASGLVPAAPPKRPAVASARPSILPSKDVKPKPIADAKAPEKRASPSKPASAPASRSGSKSTQTVAKTTTAAAVASTGPSSRSPSTLLPKKPTAIKTEGKPAEVKKMTAKSVPADLSRPKSTSTSSMKKTTTLSGTAPAAGVVPSRVKATPMPSRPSTTPFIDKKPTSAKPSSTTPRLSRLATNTSAPDLKNVRSKVGSTENIKHQPGGGRAKVEKKTEAAATTRKPESNAVTKTAGPIASAQKQPAGKVQIVSKKVSYSHIQSKCGSKDNIKHVPGGGNVQIQNKKVDISKVSSKCGSKANIKHKPGGGDVKIESQKLNFKEKAQAKVGSLDNVGHLPAGGAVKTEGGGSEAPLCPGPPAGEEPAISEAAPEAGAPTSASGLNGHPTLSGGGDQREAQTLDSQIQETSI

What was measured:
G9a and GLP = target: T1, G9a and GLP; experiment: Triple SILAC pull-down after UNC0638 treatment of 293T cells, DMSO/UNC0638 ratio of protein captured by 3×MBT; type: cell-based; design: endogenous in cells; host or cells: HEK 293T; details: all values in log base 2; for Relative to UNC0638 UNC Heavy / Relative to UNC0638 UNC Light: SILAC ratio DMSO relative to UNC0638, pull-down with 3xMBT; for Relative to UNC0638 UNC Heavy: UNC0638 in heavy SILAC media; for Relative to UNC0638 UNC Light: UNC0638 in light SILAC media; for Relative to UNC0638 Average: average of UNC Light and UNC Heavy experiments;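 as to all read-outs here: mass spectrometry (Q-Exactive) SILAC quantitation, DMSO/UNC0638 ratio computed after subtracting 3×MBTD355N mutant pull-down background, only proteins with at least twofold 3×MBT over mutant signal considered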
3×MBT domain of L3MBTL1 = experiment: Triple SILAC pull-down, 3xMBT/3xMBTD355N ratio (cytoplasmic, nuclear and chromatin fractions of 293T cells); type: binding, human; details: SILAC ratio 3xMBT vs 3xMBTD355N pull-down, 293T cells, all values in log base 2; for 3xMBT/D355N UNC Heavy: experiment with UNC0638 in heavy SILAC media; for 3xMBT/D355N UNC Light: experiment with UNC0638 in light SILAC media;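 as to all read-outs here: proteins quantified with MaxQuant, requiring at least two unique peptides and quantification in both label directions, normalized to the mean of proteins from a digested loading control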

Molecule	Relative to UNC0638 UNC Heavy (G9a and GLP)	Relative to UNC0638 UNC Light (G9a and GLP)	Relative to UNC0638 Average (G9a and GLP)	3xMBT/D355N UNC Heavy (3×MBT domain of L3MBTL1)	3xMBT/D355N UNC Light (3×MBT domain of L3MBTL1)
B1	0.12 log base 2	0.04 log base 2	0.08 log base 2	0.62 log base 2	1.91 log base 2
B2	0.27 log base 2	−0.12 log base 2	0.07 log base 2	2.39 log base 2	2.64 log base 2
B3	0.13 log base 2	0.03 log base 2	0.08 log base 2	1.41 log base 2	2.75 log base 2
